According to article PMC6625726, “A polymorphic helix of a Salmonella needle protein relays signals defining distinct steps in type III secretion” (PLoS Biology, 2019):
Positions count from the first letter of the chain named. Names and notes keep the numbering of the source.

B1: PrgI, wild type, recombinant (natural protein)
chain: MATPWSGYLDDVSAKFDTGVDNLQTQVTEALDKLAAKPSDPALLAAYQSKLSEYNLYRNAQSNTVKVFKDIDAAIIQNFR
notes: needle filament protein PrgI of the SPI-1 T3SS, 80 amino acids; pET15b, thrombin-cleavable tag; polymerised in vitro into filaments; also called PrgI^WT; WT PrgI; not shown: His6, N-terminal, cleaved
B2: PrgI^L31A, recombinant (natural protein, Salmonella enterica serovar Typhimurium, UniProt P41784 1-80, looked up)
chain: B1 chain with L31A
notes: needle filament protein PrgI of the SPI-1 T3SS, 80 amino acids; not shown: His6, N-terminal, cleaved
B3: PrgI^L9A, recombinant (natural protein, Salmonella enterica serovar Typhimurium, UniProt P41784 1-80, looked up)
chain: B1 chain with L9A
notes: as for B2
B4: PrgI^T3A, recombinant (natural protein, Salmonella enterica serovar Typhimurium, UniProt P41784 1-80, looked up)
chain: B1 chain with T3A
notes: as for B2
B5: PrgI^R58A, recombinant (natural protein, Salmonella enterica serovar Typhimurium, UniProt P41784 1-80, looked up)
chain: B1 chain with R58A
notes: needle filament protein PrgI of the SPI-1 T3SS, 80 amino acids; used for solid-state NMR; not shown: His6, N-terminal, cleaved
B6: PrgI^V67A, recombinant (natural protein, Salmonella enterica serovar Typhimurium, UniProt P41784 1-80, looked up)
chain: B1 chain with V67A
notes: as for B2
B7: PrgI, wild type, in S. Typhimurium (natural protein)
chain: B1 chain
notes: needle filament protein PrgI of the SPI-1 T3SS, 80 amino acids; assembled in vivo into the needle filament of the injectisome; also called WT PrgI; needle filament; source: S. Typhimurium ΔprgI ΔprgJ, from the low-copy plasmid pWSK29 (with prgJ); or chromosomal in wild-type and ΔsipD strains
B8: PrgI^S49A, recombinant (natural protein, Salmonella enterica serovar Typhimurium, UniProt P41784 1-80, looked up)
chain: B1 chain with S49A
notes: as for B2
B9: PrgI^V20A, recombinant (natural protein, Salmonella enterica serovar Typhimurium, UniProt P41784 1-80, looked up)
chain: B1 chain with V20A
notes: as for B5
B10: PrgI^F16A, recombinant (natural protein, Salmonella enterica serovar Typhimurium, UniProt P41784 1-80, looked up)
chain: B1 chain with F16A
notes: as for B2
B11: PrgI^Q77R, recombinant (natural protein, Salmonella enterica serovar Typhimurium, UniProt P41784 1-80, looked up)
chain: B1 chain with Q77R
notes: as for B5
B12: PrgI^L56A, recombinant (natural protein, Salmonella enterica serovar Typhimurium, UniProt P41784 1-80, looked up)
chain: B1 chain with L56A
notes: as for B2
B13: PrgI^K66E, recombinant (natural protein, Salmonella enterica serovar Typhimurium, UniProt P41784 1-80, looked up)
chain: B1 chain with K66E
notes: as for B2
B14: PrgI^D70K, recombinant (natural protein, Salmonella enterica serovar Typhimurium, UniProt P41784 1-80, looked up)
chain: B1 chain with D70K
notes: as for B2

Key:
[1] = molecular target: the molecule itself; assay: in vitro polymerization seen by negative-stain electron microscopy; His-tag cleaved with thrombin; concentrated to approximately 1 mg/ml in 20 mM MES, pH 5.5, overnight at room temperature; 2% phosphotungstic acid stain
[2] = molecular target: the molecule itself; assay: solid-state NMR of filaments; magic-angle spinning, 800 MHz, 11 kHz, approximately 278 K; 13C-detected 1D and 2D spectra of needle filaments
[3] = molecular target: the molecule itself; assay: cryo-EM structure; filaments polymerized in vitro from purified protein, sonicated; helical reconstruction
[4] = molecular target: the molecule itself; assay: cryo-EM structure; needle filaments boxed out from fully assembled needle complexes isolated by affinity chromatography (in vivo assembled, attached to the base); helical reconstruction

Protein | binding result [1] | further results
B1 | binds | –
B2 | binds | –
B3 | binds | –
B4 | binds | –
B5 | – | binding result [2]: binds
B6 | – | binding result [3]: binds
B7 | – | binding result [4]: binds
B8 | – | binding result [3]: binds
B9 | – | binding result [2]: binds
B10 | binds | –
B11 | – | binding result [2]: binds
B12 | binds | –
B13 | binds | –
B14 | binds | –
